The record followed here is article PMC5240567, “New Insights into Cooperative Binding of Homeodomain Transcription Factors PREP1 and PBX1 to DNA”.

The target of data set [1] is T1, HOXB1HD;PBX1HD (;, UniProt P14653;P40424 171-266;227-317, |). The experiment in a line: fluorescence polarization; HOXB1HD titrated into preformed PBX1HD:control; FP and EMSA: 20 mM Na/K phosphate pH 7.2, 150 mM NaCl, 5% glycerol, 1 mM TCEP, room temperature (FP 9 nM DNA, 30 min; EMSA gel run at 4 C in 0.5x TBE); NMR: 20. The note with it: protein: recombinant;recombinant; tags: GST cleaved (pGEX-6P);GST cleaved (pGEX-6P); copies: 1;1; label: 5' 6-FAM (FP); unlabeled in EMSA.
T1 sequence (P14653 171-266, chain 1 of 2, one chain of several): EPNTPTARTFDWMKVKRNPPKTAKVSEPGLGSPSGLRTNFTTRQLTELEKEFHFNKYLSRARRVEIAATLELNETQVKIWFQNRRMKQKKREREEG

In data set [2] the target is T2, PREP1HD KKKK->AAAA (UniProt P55347 240-344, K331A;K333A;K334A;K335A).
T2 sequence: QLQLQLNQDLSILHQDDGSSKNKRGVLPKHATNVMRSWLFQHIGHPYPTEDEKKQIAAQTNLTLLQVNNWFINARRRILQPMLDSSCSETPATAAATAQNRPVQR
Description: fluorescence polarization; FP and EMSA: 20 mM Na/K phosphate pH 7.2, 150 mM NaCl, 5% glycerol, 1 mM TCEP, room temperature (FP 9 nM DNA, 30 min; EMSA gel run at 4 C in 0.5x TBE); NMR: 20. The note with it: protein: recombinant; tags: GST cleaved (pGEX-6P); label: 5' 6-FAM (FP); unlabeled in EMSA and NMR. (In general: Polarisation of emitted light reports the rotation of a fluorescent probe.)

Data set [3] addresses T3, PREP1HD;PBX1HD (;, UniProt P55347;P40424 240-344;227-317, |).
T3 sequence 1: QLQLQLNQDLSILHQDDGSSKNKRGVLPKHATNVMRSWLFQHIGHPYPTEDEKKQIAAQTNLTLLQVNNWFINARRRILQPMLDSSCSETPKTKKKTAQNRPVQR
T3 sequence 2: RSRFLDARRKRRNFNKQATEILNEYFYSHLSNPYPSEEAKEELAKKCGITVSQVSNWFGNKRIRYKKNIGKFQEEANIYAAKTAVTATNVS
Description: fluorescence polarization; PREP1HD titrated into preformed PBX1HD (0.3 uM):PMH; FP and EMSA: 20 mM Na/K phosphate pH 7.2, 150 mM NaCl, 5% glycerol, 1 mM TCEP, room temperature (FP 9 nM DNA, 30 min; EMSA gel run at 4 C in 0.5x TBE); NMR: 20. The note with it: protein: recombinant;recombinant; tags: GST cleaved (pGEX-6P);GST cleaved (pGEX-6P); copies: 1;1; label: 5' 6-FAM (FP); unlabeled in EMSA and NMR.

In data set [4] the target is T1, HOXB1HD;PBX1HD. The experiment in a line: fluorescence polarization; HOXB1HD titrated into preformed PBX1HD:PMH; FP and EMSA: 20 mM Na/K phosphate pH 7.2, 150 mM NaCl, 5% glycerol, 1 mM TCEP, room temperature (FP 9 nM DNA, 30 min; EMSA gel run at 4 C in 0.5x TBE); NMR: 20. Conditions: protein: recombinant;recombinant; tags: GST cleaved (pGEX-6P);GST cleaved (pGEX-6P); copies: 1;1; label: 5' 6-FAM (FP); unlabeled in EMSA and NMR.

Data set [5] concerns the target T4, PREP1hd;PBX1HD (;, UniProt P55347;P40424 257-325;227-317, |).
T4 sequence 1: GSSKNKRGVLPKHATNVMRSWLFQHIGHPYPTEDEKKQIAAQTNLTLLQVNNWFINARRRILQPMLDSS
T4 sequence 2: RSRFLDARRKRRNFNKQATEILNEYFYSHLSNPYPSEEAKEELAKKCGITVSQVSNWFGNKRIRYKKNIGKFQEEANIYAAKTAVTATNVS
The experiment in a line: fluorescence polarization; PREP1hd titrated into preformed PBX1HD (0.3 uM):PMH; FP and EMSA: 20 mM Na/K phosphate pH 7.2, 150 mM NaCl, 5% glycerol, 1 mM TCEP, room temperature (FP 9 nM DNA, 30 min; EMSA gel run at 4 C in 0.5x TBE); NMR: 20. The note with it: protein: recombinant;recombinant; tags: GST cleaved (pGEX-6P);GST cleaved (pGEX-6P); copies: 1;1; label: 5' 6-FAM (FP); unlabeled in EMSA and NMR.

Data set [6] deals with T1, HOXB1HD;PBX1HD. Description: fluorescence polarization; HOXB1HD titrated into preformed PBX1HD:PH; FP and EMSA: 20 mM Na/K phosphate pH 7.2, 150 mM NaCl, 5% glycerol, 1 mM TCEP, room temperature (FP 9 nM DNA, 30 min; EMSA gel run at 4 C in 0.5x TBE); NMR: 20. The note with it: protein: recombinant;recombinant; tags: GST cleaved (pGEX-6P);GST cleaved (pGEX-6P); copies: 1;1; label: 5' 6-FAM (FP); unlabeled in EMSA.

B1: Control (dsDNA)
DNA 1: AGGATAACCTGGGATT
DNA 2: AATCCCAGGTTATCCT
As a reminder, the Kd is the equilibrium constant for the complex coming apart. Take B1: the dissociation constant Kd in data set [1] was found to be 34.7 ± 1.7 µM.

B2: PMH (dsDNA)
DNA 1: AGTGATTGACAGATTC
DNA 2: GAATCTGTCAATCACT
For B2, the dissociation constant Kd came out at 21.8 ± 0.8 µM in data set [2], 1.9 ± 0.5 µM in data set [3], 1.3 ± 0.3 µM in data set [4] and 5.1 ± 1.8 µM in data set [5].

B3: PH (dsDNA)
DNA 1: AGAGTGATTGATAAGG
DNA 2: CCTTATCAATCACTCT
In the case of B3, in data set [6], the Kd amounted to 0.39 ± 0.1 µM.
